According to paper PMC9482650, “Quantitative fragmentomics allow affinity mapping of interactomes” (Nature Communications, 2022):

T1: SIPA1L2, Q9P2F8
T1 sequence (Q9P2F8 945-1036, limits assumed, looked up): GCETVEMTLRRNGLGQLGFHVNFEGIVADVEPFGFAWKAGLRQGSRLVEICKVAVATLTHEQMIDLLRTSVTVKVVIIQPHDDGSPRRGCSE

T2: MPDZ_5, O75970
T2 sequence (O75970 695-796, limits assumed, looked up): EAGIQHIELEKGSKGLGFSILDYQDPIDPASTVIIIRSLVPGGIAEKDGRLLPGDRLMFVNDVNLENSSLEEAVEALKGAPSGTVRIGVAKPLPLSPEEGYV

T3: PCLO, Q9Y6V0
T3 sequence (Q9Y6V0 4491-4600, limits assumed, looked up): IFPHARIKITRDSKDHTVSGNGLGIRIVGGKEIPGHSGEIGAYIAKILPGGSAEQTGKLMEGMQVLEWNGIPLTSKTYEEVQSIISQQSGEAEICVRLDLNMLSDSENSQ

T4: DFNB31_3, Q9P202
T4 sequence (Q9P202 811-907, limits assumed, looked up): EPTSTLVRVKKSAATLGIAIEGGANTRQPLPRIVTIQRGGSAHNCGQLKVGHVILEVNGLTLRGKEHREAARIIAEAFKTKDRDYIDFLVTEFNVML

T5: PDZD2_2, O15018
T5 sequence (O15018 329-429, limits assumed, looked up): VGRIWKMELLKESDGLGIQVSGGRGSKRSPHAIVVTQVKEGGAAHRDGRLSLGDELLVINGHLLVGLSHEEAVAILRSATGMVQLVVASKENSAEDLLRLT

T6: NHERF3_4, Q5T2W1
T6 sequence (Q5T2W1 373-468, limits assumed, looked up): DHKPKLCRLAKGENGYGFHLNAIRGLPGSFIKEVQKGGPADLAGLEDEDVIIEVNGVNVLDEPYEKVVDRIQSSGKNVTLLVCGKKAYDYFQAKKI

T7: DLG3_1, Q92796
T7 sequence (Q92796 125-227, limits assumed, looked up): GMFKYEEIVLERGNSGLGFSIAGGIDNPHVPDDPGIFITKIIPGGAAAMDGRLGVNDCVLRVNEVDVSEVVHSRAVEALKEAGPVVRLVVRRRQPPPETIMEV

T8: MPP6, Q9NZW5
T8 sequence (Q9NZW5 125-219, limits assumed, looked up): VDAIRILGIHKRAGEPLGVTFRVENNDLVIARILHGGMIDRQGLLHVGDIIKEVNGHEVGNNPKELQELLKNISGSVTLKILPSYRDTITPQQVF

T9: NHERF3_1, Q5T2W1
T9 sequence (Q5T2W1 4-100, limits assumed, looked up): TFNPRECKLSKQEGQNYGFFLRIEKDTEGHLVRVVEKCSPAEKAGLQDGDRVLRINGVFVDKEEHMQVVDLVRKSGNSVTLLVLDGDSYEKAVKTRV

T10: LIN7A, O14910
T10 sequence (O14910 103-200, limits assumed, looked up): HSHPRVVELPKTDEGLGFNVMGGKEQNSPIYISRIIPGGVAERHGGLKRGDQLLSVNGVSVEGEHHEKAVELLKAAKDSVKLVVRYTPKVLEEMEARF

T11: SNTA1, Q13424
T11 sequence (Q13424 82-180, limits assumed, looked up): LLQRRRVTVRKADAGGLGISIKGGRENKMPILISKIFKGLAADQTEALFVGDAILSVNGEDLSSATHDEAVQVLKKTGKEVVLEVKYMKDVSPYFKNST

B1: PTH1R, Q03431 (peptide)
chain: LLQEEWETVM

target: GRIP2_6, Q9C0E4; test: holdup assay; set-up: key: below the threshold = too weak to quantify, mostly under pKd 3.1 to 4; conditions: plain residues with an end cap or a label only (N-terminal biotin on a linker: ado-ado)
Sequence (Q9C0E4 648-740): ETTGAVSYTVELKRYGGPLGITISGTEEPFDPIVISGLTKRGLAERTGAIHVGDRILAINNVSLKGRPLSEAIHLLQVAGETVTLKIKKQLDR

| Binder | pKd |
| --- | --- |
| B1 | below the threshold |

target: NHERF2_2, Q15599; test: holdup assay; set-up: key: below the threshold = too weak to quantify, mostly under pKd 3.1 to 4; conditions: plain residues with an end cap or a label only (N-terminal biotin on a linker: ado-ado)
Sequence (Q15599 142-238): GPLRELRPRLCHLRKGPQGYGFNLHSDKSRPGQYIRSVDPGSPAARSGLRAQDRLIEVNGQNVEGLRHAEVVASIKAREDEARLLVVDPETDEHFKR

| Binder | pKd |
| --- | --- |
| B1 | 5.14 |

target: GRIP2_5, Q9C0E4; test: holdup assay; set-up: key: below the threshold = too weak to quantify, mostly under pKd 3.1 to 4; conditions: plain residues with an end cap or a label only (N-terminal biotin on a linker: ado-ado)
Sequence (Q9C0E4 544-642): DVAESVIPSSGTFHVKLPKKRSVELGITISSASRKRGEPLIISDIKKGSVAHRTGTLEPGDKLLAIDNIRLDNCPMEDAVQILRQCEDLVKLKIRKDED

| Binder | pKd |
| --- | --- |
| B1 | 3.51 |

target: T1, SIPA1L2, Q9P2F8; test: holdup assay; set-up: key: below the threshold = too weak to quantify, mostly under pKd 3.1 to 4; conditions: plain residues with an end cap or a label only (N-terminal biotin on a linker: ado-ado)

| Binder | pKd |
| --- | --- |
| B1 | below the threshold |

target: T2, MPDZ_5, O75970; test: holdup assay; set-up: key: below the threshold = too weak to quantify, mostly under pKd 3.1 to 4; conditions: plain residues with an end cap or a label only (N-terminal biotin on a linker: ado-ado)

| Binder | pKd |
| --- | --- |
| B1 | below the threshold |

target: T3, PCLO, Q9Y6V0; test: holdup assay; set-up: key: below the threshold = too weak to quantify, mostly under pKd 3.1 to 4; conditions: plain residues with an end cap or a label only (N-terminal biotin on a linker: ado-ado)

| Binder | pKd |
| --- | --- |
| B1 | below the threshold |

target: T4, DFNB31_3, Q9P202; test: holdup assay; set-up: key: below the threshold = too weak to quantify, mostly under pKd 3.1 to 4; conditions: plain residues with an end cap or a label only (N-terminal biotin on a linker: ado-ado)

| Binder | pKd |
| --- | --- |
| B1 | 4.17 |

target: T5, PDZD2_2, O15018; test: holdup assay; set-up: key: below the threshold = too weak to quantify, mostly under pKd 3.1 to 4; conditions: plain residues with an end cap or a label only (N-terminal biotin on a linker: ado-ado)

| Binder | pKd |
| --- | --- |
| B1 | below the threshold |

target: T6, NHERF3_4, Q5T2W1; test: holdup assay; set-up: key: below the threshold = too weak to quantify, mostly under pKd 3.1 to 4; conditions: plain residues with an end cap or a label only (N-terminal biotin on a linker: ado-ado)

| Binder | pKd |
| --- | --- |
| B1 | 4.64 |

target: IL16_3, Q14005; test: holdup assay; set-up: key: below the threshold = too weak to quantify, mostly under pKd 3.1 to 4; conditions: plain residues with an end cap or a label only (N-terminal biotin on a linker: ado-ado)
Sequence (Q14005 1107-1207): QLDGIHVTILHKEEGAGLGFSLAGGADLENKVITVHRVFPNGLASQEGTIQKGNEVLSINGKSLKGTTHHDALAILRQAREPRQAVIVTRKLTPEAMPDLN

| Binder | pKd |
| --- | --- |
| B1 | below the threshold |

target: T7, DLG3_1, Q92796; test: holdup assay; set-up: key: below the threshold = too weak to quantify, mostly under pKd 3.1 to 4; conditions: plain residues with an end cap or a label only (N-terminal biotin on a linker: ado-ado)

| Binder | pKd |
| --- | --- |
| B1 | below the threshold |

target: HTRA2, O43464; test: holdup assay; set-up: key: below the threshold = too weak to quantify, mostly under pKd 3.1 to 4; conditions: plain residues with an end cap or a label only (N-terminal biotin on a linker: ado-ado)
Sequence (O43464 355-458): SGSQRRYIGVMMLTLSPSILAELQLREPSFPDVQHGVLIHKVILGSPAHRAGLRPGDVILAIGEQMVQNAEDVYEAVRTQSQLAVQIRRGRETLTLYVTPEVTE

| Binder | pKd |
| --- | --- |
| B1 | below the threshold |

target: T8, MPP6, Q9NZW5; test: holdup assay; set-up: key: below the threshold = too weak to quantify, mostly under pKd 3.1 to 4; conditions: plain residues with an end cap or a label only (N-terminal biotin on a linker: ado-ado)

| Binder | pKd |
| --- | --- |
| B1 | below the threshold |

target: DLG1_3, Q12959; test: holdup assay; set-up: key: below the threshold = too weak to quantify, mostly under pKd 3.1 to 4; conditions: plain residues with an end cap or a label only (N-terminal biotin on a linker: ado-ado)

| Binder | pKd |
| --- | --- |
| B1 | below the threshold |

target: MAST1, Q9Y2H9; test: holdup assay; set-up: key: below the threshold = too weak to quantify, mostly under pKd 3.1 to 4; conditions: plain residues with an end cap or a label only (N-terminal biotin on a linker: ado-ado)
Sequence (Q9Y2H9 962-1065): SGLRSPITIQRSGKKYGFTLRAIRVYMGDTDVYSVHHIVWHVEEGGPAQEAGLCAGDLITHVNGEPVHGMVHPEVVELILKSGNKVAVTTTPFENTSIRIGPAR

| Binder | pKd |
| --- | --- |
| B1 | 5.01 |

target: GRASP, Q7Z6J2; test: holdup assay; set-up: key: below the threshold = too weak to quantify, mostly under pKd 3.1 to 4; conditions: plain residues with an end cap or a label only (N-terminal biotin on a linker: ado-ado)
Sequence (Q7Z6J2 96-193): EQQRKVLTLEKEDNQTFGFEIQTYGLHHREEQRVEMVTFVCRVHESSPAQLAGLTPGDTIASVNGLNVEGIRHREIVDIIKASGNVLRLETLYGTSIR

| Binder | pKd |
| --- | --- |
| B1 | 3.72 |

target: CASK, O14936; test: holdup assay; set-up: key: below the threshold = too weak to quantify, mostly under pKd 3.1 to 4; conditions: plain residues with an end cap or a label only (N-terminal biotin on a linker: ado-ado)
Sequence (O14936 487-570): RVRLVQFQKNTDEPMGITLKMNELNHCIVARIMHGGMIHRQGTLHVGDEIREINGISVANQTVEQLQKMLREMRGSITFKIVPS

| Binder | pKd |
| --- | --- |
| B1 | below the threshold |

target: T9, NHERF3_1, Q5T2W1; test: holdup assay; set-up: key: below the threshold = too weak to quantify, mostly under pKd 3.1 to 4; conditions: plain residues with an end cap or a label only (N-terminal biotin on a linker: ado-ado)

| Binder | pKd |
| --- | --- |
| B1 | 5.63 |

target: FRMPD3, Q5JV73; test: holdup assay; set-up: key: below the threshold = too weak to quantify, mostly under pKd 3.1 to 4; conditions: plain residues with an end cap or a label only (N-terminal biotin on a linker: ado-ado)
Sequence (Q5JV73 12-100): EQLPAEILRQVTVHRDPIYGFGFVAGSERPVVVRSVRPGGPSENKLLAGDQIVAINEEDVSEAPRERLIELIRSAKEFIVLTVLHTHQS

| Binder | pKd |
| --- | --- |
| B1 | below the threshold |

target: T10, LIN7A, O14910; test: holdup assay; set-up: key: below the threshold = too weak to quantify, mostly under pKd 3.1 to 4; conditions: plain residues with an end cap or a label only (N-terminal biotin on a linker: ado-ado)

| Binder | pKd |
| --- | --- |
| B1 | below the threshold |

target: T11, SNTA1, Q13424; test: holdup assay; set-up: key: below the threshold = too weak to quantify, mostly under pKd 3.1 to 4; conditions: plain residues with an end cap or a label only (N-terminal biotin on a linker: ado-ado)

| Binder | pKd |
| --- | --- |
| B1 | 4.09 |

target: GOPC, Q9HD26; test: holdup assay; set-up: key: below the threshold = too weak to quantify, mostly under pKd 3.1 to 4; conditions: plain residues with an end cap or a label only (N-terminal biotin on a linker: ado-ado)

| Binder | pKd |
| --- | --- |
| B1 | 3.85 |

target: DLG1_2, Q12959; test: holdup assay; set-up: key: below the threshold = too weak to quantify, mostly under pKd 3.1 to 4; conditions: plain residues with an end cap or a label only (N-terminal biotin on a linker: ado-ado)

| Binder | pKd |
| --- | --- |
| B1 | below the threshold |

target: FRMPD2_3, Q68DX3; test: holdup assay; set-up: key: below the threshold = too weak to quantify, mostly under pKd 3.1 to 4; conditions: plain residues with an end cap or a label only (N-terminal biotin on a linker: ado-ado)
Sequence (Q68DX3 1073-1166): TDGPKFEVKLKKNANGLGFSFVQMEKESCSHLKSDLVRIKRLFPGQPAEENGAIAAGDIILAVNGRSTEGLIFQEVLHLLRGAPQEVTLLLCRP

| Binder | pKd |
| --- | --- |
| B1 | below the threshold |

target: DLG1_1, Q12959; test: holdup assay; set-up: key: below the threshold = too weak to quantify, mostly under pKd 3.1 to 4; conditions: plain residues with an end cap or a label only (N-terminal biotin on a linker: ado-ado)

| Binder | pKd |
| --- | --- |
| B1 | below the threshold |

target: GRID2IP_2, A4D2P6; test: holdup assay; set-up: key: below the threshold = too weak to quantify, mostly under pKd 3.1 to 4; conditions: plain residues with an end cap or a label only (N-terminal biotin on a linker: ado-ado)
Sequence (A4D2P6 272-370): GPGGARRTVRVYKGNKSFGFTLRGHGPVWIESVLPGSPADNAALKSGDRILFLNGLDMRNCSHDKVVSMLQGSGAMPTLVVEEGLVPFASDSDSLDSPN

| Binder | pKd |
| --- | --- |
| B1 | 4.11 |

target: MAGI2_2, Q86UL8; test: holdup assay; set-up: key: below the threshold = too weak to quantify, mostly under pKd 3.1 to 4; conditions: plain residues with an end cap or a label only (N-terminal biotin on a linker: ado-ado)
Sequence (Q86UL8 410-522): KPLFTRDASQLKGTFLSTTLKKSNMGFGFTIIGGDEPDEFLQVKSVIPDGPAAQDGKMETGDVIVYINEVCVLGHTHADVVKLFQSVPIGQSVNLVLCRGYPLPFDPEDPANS

| Binder | pKd |
| --- | --- |
| B1 | below the threshold |
